According to patent US20230110875A1 (US Dept. of Health and Human Services, published 2023):

Target: T1, mouse CD276-AP fusion protein (mouse, UniProt Q8VE98 29-248)
T1 construct: Coated on the ELISA plate at 2 ug/ml; not shown: AP fusion partner
T1 sequence (looked up): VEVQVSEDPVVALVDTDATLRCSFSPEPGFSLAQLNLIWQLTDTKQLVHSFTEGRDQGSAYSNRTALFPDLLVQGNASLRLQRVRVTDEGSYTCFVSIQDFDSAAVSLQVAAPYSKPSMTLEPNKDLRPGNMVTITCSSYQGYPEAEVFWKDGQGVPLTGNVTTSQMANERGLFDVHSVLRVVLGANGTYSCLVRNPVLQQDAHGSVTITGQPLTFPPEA
Assay: ELISA, mouse CD276-AP fusion protein coated at 2 ug/ml, serially diluted scFv-Fc culture medium, HRP goat anti-human IgG, OD 450 nm
Experimental: 50 μl of the diluted mouse or human CD276-AP fusion protein in PBS at 2 μg/ml was coated in a 96-well plate at 4° C. overnight. Transiently expressed scFv-Fc fusion protein in the culture medium was serially diluted and added into the target protein coated wells. After washing, a 1:3000 diluted horseradish peroxidase (HRP) conjugated goat anti-human IgG antibody was added for 1 hr at RT. After washing, 3, 3, 5, 5′-Tetramethylbenzidine (TMB) substrate was added, and the optical density (O.D.) was read at 450 nm.

- binding result: no binding
B1: Clone CD276.1 (m851) scFv-Fc fusion protein (Fc fusion)
scFv: QVQLQQSGAEVKKPGSSVKVSCKASGGTFSSYAISWVRQAPGQGLEWMGGIIPILGIANYAQKFQGRVTITADESTSTAYMELSSLRSEDTAVYYCARGGAGGSGSYYPLIWGQGTTVTVSSGGGGSGGGGSGGGGSEIVLTQSPATLSLSPGERATLSCGASQSVSSSYLAWYQQKPGQAPRLLIYDASSRATGIPARFSGSGSGTDFTLTISSLEPEDFAVYYCQQRSSWPPTWTFGQGTKLEIKR
notes: also called m851 (CD276.1); not shown: Fc-Avi tag from modified pSecTag vector
